How the values were obtained:
[1] = target: DC-SIGN Biot-ECD (biotinylated extracellular domain of DC-SIGN) (UniProt Q9NNX6); test: SPR
[2] = target: MGL Biot-ECD (biotinylated extracellular domain of MGL) (UniProt Q8IUN9); test: SPR
Sequence of UniProt Q8IUN9 (Q8IUN9 61-316): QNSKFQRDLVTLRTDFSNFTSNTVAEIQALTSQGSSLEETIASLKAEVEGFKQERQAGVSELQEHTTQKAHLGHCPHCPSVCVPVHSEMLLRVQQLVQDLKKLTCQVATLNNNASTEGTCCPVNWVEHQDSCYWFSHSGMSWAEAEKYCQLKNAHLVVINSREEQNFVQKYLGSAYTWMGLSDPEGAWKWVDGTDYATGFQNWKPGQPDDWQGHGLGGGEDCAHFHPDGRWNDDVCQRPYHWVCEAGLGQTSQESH

Sequence of UniProt Q9NNX6 (Q9NNX6 59-404): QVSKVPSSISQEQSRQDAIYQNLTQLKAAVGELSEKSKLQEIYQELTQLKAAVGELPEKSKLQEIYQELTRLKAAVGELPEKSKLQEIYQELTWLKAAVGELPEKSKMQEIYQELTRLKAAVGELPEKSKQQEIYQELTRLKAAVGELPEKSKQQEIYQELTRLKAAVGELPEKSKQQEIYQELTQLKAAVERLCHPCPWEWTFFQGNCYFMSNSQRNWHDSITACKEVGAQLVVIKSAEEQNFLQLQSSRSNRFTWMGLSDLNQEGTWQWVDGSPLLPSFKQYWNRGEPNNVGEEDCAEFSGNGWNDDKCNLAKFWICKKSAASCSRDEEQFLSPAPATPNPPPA

Substance: Spike Receptor Binding Domain of SARS-CoV-2 fused to the SpyCatcher (RBD-SC) (from UniProt P0DTC2 320-554)
- Kd [1]: 601 nM
- Kd [2]: 982 nM

From paper PMC9687312
